Source: publication PMC3627597
Like-named read-outs stand apart in the source and are kept apart here.

Assays:
[1] = target: T1, BAFF-R (B-cell activating factor receptor) (human, UniProt Q96RJ3 1-76); experiment: EMSA
T1 sequence: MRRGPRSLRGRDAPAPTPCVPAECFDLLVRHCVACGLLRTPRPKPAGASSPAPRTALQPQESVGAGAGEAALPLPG

BCMA (TNFRSF17) = BCMA (TNFRSF17) (human, UniProt Q02223 1-54); experiment: EMSA
[2] = target: T1, BAFF-R (B-cell activating factor …); experiment: EMSA; remark: listed apart in the source
[3] = target: T1, BAFF-R (B-cell activating factor …); experiment: filter binding

Sequence of BCMA (TNFRSF17) (Q02223 1-54): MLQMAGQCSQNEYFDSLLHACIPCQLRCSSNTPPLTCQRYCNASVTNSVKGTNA

Binder | Kd [1] | binding result (BCMA (TNFRSF17)) | Kd [2] | binding signal [3]
R-1 aptamer (structured_RNA, 2'-F U and C) RNA: GGGAGGACGAUGCGGGAGGCUCAACAAUGAUAGAGCCCGCAAUGUUGAUAGUUGUGCCCAGUCUGCAGACGACUCGCCCGA | ~47 nM | no binding | 54 nM | > 36 % RNA retained
R-1-STAT3 27-mer SWAP chimera (structured_RNA, 2'-F U and C in aptamer-antisense strand; S7 3' ga are DNA) RNA 1: GGGAGGACGAUGCGGGAGGCUCAACAAUGAUAGAGCCCGCAAUGUUGAUAGUUGUGCCCAGUCUGCAGACGACUGCCCGAUUUUUUUUUCAGUCGUAUCUUUCUGCAGCUUCCGU RNA 2: GGAAGCUGCAGAAAGAUACGACUGA | 56 nM | – | – | –
R-1-STAT3 27-mer OVH chimera (structured_RNA, 2'-F U and C in aptamer-sense strand) RNA 1: GGGAGGACGAUGCGGGAGGCUCAACAAUGAUAGAGCCCGCAAUGUUGAUAGUUGUGCCCAGUCUGCAGACGACUCGCCCGAUUUUUUUUGAGAACGGAAGCUGCAGAAAGAUACGA RNA 2: GUAUCUUUCUGCAGCUUCCGUUCUC | 35 nM | – | – | –
R-22 aptamer (structured_RNA, 2'-F U and C) RNA: GGGAGGACGAUGCGGAUCCUCCGAAGGUCGCGCCAACGUCACACAUUAAGCUUUUGUUCGUCUGCAGACGACUCGCCCGA | – | – | – | 3.6 % RNA retained
R-14 aptamer (structured_RNA, 2'-F U and C) RNA: GGGAGGACGAUGCGGAUAACUAUUGUGCUAGAGGGCUUAUUUAUGUGAGCCGGUUGAUAGUUGCGCAGACGACUCGCCCGA | ~96 nM | – | – | > 36 % RNA retained
